From patent publication US20210062165A1 (TRUSTEES OF PRINCETON UNIVERSITY, published 2021)

What was measured:
[1] = molecular target: the molecule itself; test: microscopy of self-clustering in yeast (YEZ53), light against dark
Experimental: Yeast strains were cultured overnight in a 24 well plate covered with foil. SC media was used to avoid the high auto-fluorescence of YPD. The following day, cultures were diluted 1:20 and allowed to grow for 2 hours such that the cells were in exponential phase. Wells of the microscopy plate were coated using 1 mg/mL Concanavalin A (Sigma) dissolved in 20 mM sodium acetate. After washing wells with ddH2O, yeast cultures were transferred and spun down at 1000 rpm for 3 min. All imaging was carried out using a 60X oil immersion objective (NA 1.4) on a Nikon A1 laser scanning confocal microscope. The laser was used at two different wavelengths: 488 nm for activation of Cry2 and 551 nm for visualization of FusionRed. […] Laser settings were 40% intensity for 488 nm and 30% intensity for 561 nm. Exposure times for both wavelengths was 200 ms.

[2] = molecular target: T1, FUS^N-Citrine-PixE fusion protein; test: microscopy of co-clustering in yeast strain YEZ555, dark against blue light
T1 construct: Expressed inside S. cerevisiae cells (strains YEZ231, YEZ232, YEZ555); The listing entry is DNA, not protein; also called FUS^NPixE; EZ-L498

Binder	binding result [1]	binding result [2]
FUS^N-FusionRed-Cry2 fusion protein (other, Expressed inside S. cerevisiae cells (strains YEZ53, yNS47); The listing entry is DNA, not protein; also called optoDroplets; optoDroplet) MASASNDYTQQATQSYGAYPTQPGQGYSQQSSQPYGQQSYSGYSQSTDTSGYGQSSYSSYGQSQNTGYGTQSTPQGYGSTGGYGSSQSSQSSYGQQSSYPGYGQQPAPSSTSGSYGSSSQSSSYGQPQSGSYSQQPSYGGQQQSYGQQQSYNPPQGYGQQNQYNSSSGGGGGGGGGGNYGQDQSSMSSGGGSGGGYGNQDQSGGGGSGGYGQQDRGGGGMVSELIKENMPMKLYMEGTVNNHHFKCTSEGEGKPYEGTQTMRIKVVEGGPLPFAFDILATSFMYGSRTFIKHPPGIPDFFKQSFPEGFTWERVTTYEDGGVLTATQDTSLQDGCLIYNVKVRGVNFPANGPVMQKKTLGWEASTETMYPADGGLEGACDMALKLVGGGHLICNLETTYRSKKPATNLKMPGVYNVDHRLERIKEADDETYVEQHEVAVARYSTGGAGDGGKAATRMKMDKKTIVWFRRDLRIEDNPALAAAAHEGSVFPVFIWCPEEEGQFYPGRASRWWMKQSLAHLSQSLKALGSDLTLIKTHNTISAILDCIRVTGATKVVFNHLYDPVSLVRDHTVKEKLVERGISVQSYNGDLLYEPWEIYCEKGKPFTSFNSYWKKCLDMSIESVMLPPPWRLMPITAAAEAIWACSIEELGLENEAEKPSNALLTRAWSPGWSNADKLLNEFIEKQLIDYAKNSKKVVGNSTSLLSPYLHFGEISVRHVFQCARMKQIIWARDKNSEGEESADLFLRGIGLREYSRYICFNFPFTHEQSLLSHLRFFPWDADVDKFKAWRQGRTGYPLVDAGMRELWATGWMHNRIRVIVSSFAVKFLLLPWKWGMKYFWDTLLDADLECDILGWQYISGSIPDGHELDRLDNPALQGAKYDPEGEYIRQWLPELARLPTEWIHHPWDAPLTVLKASGVELGTNYAKPIVDIDTARELLAKAISRTREAQIMIGAAARDPPVATGSGSGSG	binds	–
sFUS-FusionRed-PixD fusion protein (other, Expressed inside S. cerevisiae cells (strain YEZ555). sFUS is the first 93 amino acids of the FUS^N domain; The listing entry is DNA, not protein; also called sFUS-FR-PixD; EZ-L767) MASNDYTQQATQSYGAYPTQPGQGYSQQSSQPYGQQSYSGYSQSTDTSGYGQSSYSSYGQSQNTGYGTQSTPQGYGSTGGYGSSQSSQSSYGQQGGGMVSELIKENMPMKLYMEGTVNNHHFKCTSEGEGKPYEGTQTMRIKVVEGGPLPFAFDILATSFMYGSRTFIKHPPGIPDFFKQSFPEGFTWERVTTYEDGGVLTATQDTSLQDGCLIYNVKVRGVNFPANGPVMQKKTLGWEASTETMYPADGGLEGACDMALKLVGGGHLICNLETTYRSKKPATNLKMPGVYNVDHRLERIKEADDETYVEQHEVAVARYSTGGAGDGGKAATRMSLYRLIYSSQGIPNLQPQDLKDILESSQRNNPANGITGLLCYSKPAFLQVLEGECEQVNETYHRIVQDERHHSPQIIECMPIRRRNFEVWSMQAITVNDLSTEQVKTLVLKYSGFTTLRPSAMDPEQCLNFLLDIAKIYELSDNFFLDL	–	binds
